Measured values: US5352587A, “Compositions and methods for the synthesis of natriuretic protein receptor B and methods of use” (Genentech, Inc., priority 1991, dated 1994)
Ends that are not written are not given here.

Columns and labels:
soluble NPRB = assay: Binding to soluble NPRB extracellular domain (1-433) in concentrated conditioned medium; set-up: species or system human
Experimental: Soluble extracellular domain of NPRB was engineered by introducing a translation termination codon at position 434 to produce the 1-433 fragment of the NPRB sequence illustrated in FIG. 1. A stable cell line was developed in 293 cells as described for 293NPRBDKC, and clones were screened by binding of ^125 lBNP to receptor in condition medium. Control 293 cells or the stable cell line 293BCF.15 (NPRB cell free) were plated 24 hours prior to the addition of serum free conditioned medium. Medium was left on the cells for 72 hours then collected for analysis of the […] synthesized. The media was vacuum filtered through a […] filter (Millipore Corp) then concentrated 8-fold by ultrafiltration on an Amicon Corp centriprep YM30 membrane. A 0.5 ml sample of concentrated conditioned media was incubated for one hour in the presence of 0.25 mCi of ^125 l-pBNP(26) (2462 Ci/mmole) with (background binding) or without (total binding) 1.2 mM pBNP(26). A 1.0 ml sample of activated charcoal solution (Fuller et al. J. Biol. Chem. 264, 14179-14184 [1989]) was added to absorb unbound label and recovered by centrifugation. The supernatant (1.4 ml) was removed for determination of ^125 l-pBNP bound to receptor by gamma counting. Specific binding was calculated from the difference between total binding minus background binding. […]

[1] = target: T1, NPRB lacking its kinase and guanylyl cyclase domains (BDKC) (Homo sapiens, UniProt P20594); assay: Scatchard analysis of binding to 293 cells expressing NPRB less the kinase and cyclase domains (BDKC); conditions: two hours at room temperature (21° C.), LIGAND program, read-out: dissociation constant (Kd)
T1 construct: expressed in transfected cells
T1 sequence (P20594 23-501): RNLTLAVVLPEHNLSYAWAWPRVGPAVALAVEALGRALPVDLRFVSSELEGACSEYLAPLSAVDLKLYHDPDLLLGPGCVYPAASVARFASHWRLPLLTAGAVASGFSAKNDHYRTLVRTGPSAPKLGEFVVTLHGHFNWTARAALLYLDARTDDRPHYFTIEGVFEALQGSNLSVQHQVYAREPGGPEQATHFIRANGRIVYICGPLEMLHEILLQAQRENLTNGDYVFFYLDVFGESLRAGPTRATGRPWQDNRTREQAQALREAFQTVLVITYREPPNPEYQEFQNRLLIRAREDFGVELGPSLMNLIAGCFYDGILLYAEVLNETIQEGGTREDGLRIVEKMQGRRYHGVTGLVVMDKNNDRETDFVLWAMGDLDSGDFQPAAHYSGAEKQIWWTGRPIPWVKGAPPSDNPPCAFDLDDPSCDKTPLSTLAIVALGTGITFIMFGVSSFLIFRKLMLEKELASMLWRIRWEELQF
Source text: Scatchard analysis was used to determine the binding affinities of the natriuretic peptides for NPRB. An expression vector using pRK was constructed such that the NPRB lacked its kinase and guanylyl cyclase domains. This mutation was effected by introduction of a termination codon at condo 480 of the mature NPRB protein. A recombinant cell line expressing NPRB less the kinase and cyclase domains (BDKC) was developed by calcium phosphate transfection of 293 cells as described above. These stable cell lines were screened for expression of BDKC by binding of porcine BNP which contained 26 amino acids (^125 l-pBNP[26]). […] Binding was allowed to proceed to equilibrium by incubation for two hours at room temperature (21° C.), the bound ^125 l-pBNP(26) was separated from unbound by centrifugation for 7 minutes at 4° C. The supernatant was aspirated and the cell pellet was counted in a gamma counter for ^125 l quantitation. Background binding was subtracted from total binding to give specific binding and the specific binding vs. dose of ^125 l-pBNA data was analyzed by the LIGAND program of Munson and Rodbard (Analytical Biochemistry 107, 220-239 [1980]). The results shown are in FIG. 5.

NPRB [2] = target: T2, NPRB (Homo sapiens, UniProt P20594); assay: Specific binding to COS-7 cells transfected with pRK-NPRB; conditions: Table 2, 0.5 nM, room temperature, 1 hr
T2 construct: whole cells or solubilized membranes
T2 sequence (P20594 23-1047): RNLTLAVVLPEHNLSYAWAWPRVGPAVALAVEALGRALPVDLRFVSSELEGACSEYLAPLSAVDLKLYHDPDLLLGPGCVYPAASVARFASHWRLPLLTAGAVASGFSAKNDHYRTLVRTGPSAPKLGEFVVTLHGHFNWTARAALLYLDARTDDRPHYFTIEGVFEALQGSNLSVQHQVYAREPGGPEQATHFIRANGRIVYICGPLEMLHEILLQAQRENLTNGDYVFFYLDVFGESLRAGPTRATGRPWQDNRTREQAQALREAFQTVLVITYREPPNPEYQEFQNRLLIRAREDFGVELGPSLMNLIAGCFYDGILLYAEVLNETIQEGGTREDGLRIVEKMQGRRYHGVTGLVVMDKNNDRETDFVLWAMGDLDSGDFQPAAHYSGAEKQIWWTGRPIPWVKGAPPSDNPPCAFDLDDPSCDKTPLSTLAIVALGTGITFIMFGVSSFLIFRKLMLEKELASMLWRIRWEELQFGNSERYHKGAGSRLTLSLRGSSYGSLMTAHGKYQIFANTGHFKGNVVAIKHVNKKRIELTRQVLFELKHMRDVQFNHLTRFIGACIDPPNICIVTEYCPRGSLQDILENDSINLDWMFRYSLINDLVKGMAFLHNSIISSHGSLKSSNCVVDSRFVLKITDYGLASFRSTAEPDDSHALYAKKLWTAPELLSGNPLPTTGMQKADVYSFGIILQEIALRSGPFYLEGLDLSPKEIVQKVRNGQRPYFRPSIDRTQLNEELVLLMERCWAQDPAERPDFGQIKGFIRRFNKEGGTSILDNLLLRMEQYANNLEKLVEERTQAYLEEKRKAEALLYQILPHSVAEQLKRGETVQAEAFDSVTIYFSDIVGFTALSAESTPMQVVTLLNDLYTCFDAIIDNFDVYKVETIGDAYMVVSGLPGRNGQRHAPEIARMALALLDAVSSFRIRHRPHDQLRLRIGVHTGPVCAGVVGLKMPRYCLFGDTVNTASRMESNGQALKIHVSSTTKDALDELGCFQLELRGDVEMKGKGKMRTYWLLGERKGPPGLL
Experimental: (§1) To examine the biochemical properties of the NPRB receptor, we constructed an expression vector in which the coding sequence was placed under the transcriptional control of the cytomegalovirus immediate-early promoter (Table 2). […] The NPRB expression vector was transfected into COS-2 cells in a transient expression assay and the detergent solubilized guanylyl cyclase activity of a membrane fraction was measured (Table 2). […] Specific binding of [^125 l]-human ANP (ANP) and [^125 l]-porcine BNP (pBNP) to transfected cells was determined in the presence of absence of unlabeled peptides.
(§2) COS-7 cells maintained in Dulbecco's modified Eagles' medium (DMEM) supplemented with 10% fetal calf serum were seeded at 5×10^6 cells per 100 mm plate (GC assay) or 1×10^5 per 35 mm plate (binding assay). Twelve house later, cells were transfected with control vector^5 (1 mg/ml) using DEAE-dextran.
(§3) Following the incubation, cells were rinsed with cold PBS, and dissolved in 2 ml of 0.2M NaOH and radioactivity was measured in gamma counter. All measurements were in triplicate. […] Specific binding in table 2 was calculated by subtracting the background binding from the total binding.

NPRA = target: T3, NPRA (Homo sapiens, UniProt P16066); assay: Specific binding to COS-7 cells transfected with pRK-NPRA; conditions: Table 2, 0.5 nM, room temperature, 1 hr
T3 construct: whole cells or solubilized membranes
T3 sequence (P16066 33-1061): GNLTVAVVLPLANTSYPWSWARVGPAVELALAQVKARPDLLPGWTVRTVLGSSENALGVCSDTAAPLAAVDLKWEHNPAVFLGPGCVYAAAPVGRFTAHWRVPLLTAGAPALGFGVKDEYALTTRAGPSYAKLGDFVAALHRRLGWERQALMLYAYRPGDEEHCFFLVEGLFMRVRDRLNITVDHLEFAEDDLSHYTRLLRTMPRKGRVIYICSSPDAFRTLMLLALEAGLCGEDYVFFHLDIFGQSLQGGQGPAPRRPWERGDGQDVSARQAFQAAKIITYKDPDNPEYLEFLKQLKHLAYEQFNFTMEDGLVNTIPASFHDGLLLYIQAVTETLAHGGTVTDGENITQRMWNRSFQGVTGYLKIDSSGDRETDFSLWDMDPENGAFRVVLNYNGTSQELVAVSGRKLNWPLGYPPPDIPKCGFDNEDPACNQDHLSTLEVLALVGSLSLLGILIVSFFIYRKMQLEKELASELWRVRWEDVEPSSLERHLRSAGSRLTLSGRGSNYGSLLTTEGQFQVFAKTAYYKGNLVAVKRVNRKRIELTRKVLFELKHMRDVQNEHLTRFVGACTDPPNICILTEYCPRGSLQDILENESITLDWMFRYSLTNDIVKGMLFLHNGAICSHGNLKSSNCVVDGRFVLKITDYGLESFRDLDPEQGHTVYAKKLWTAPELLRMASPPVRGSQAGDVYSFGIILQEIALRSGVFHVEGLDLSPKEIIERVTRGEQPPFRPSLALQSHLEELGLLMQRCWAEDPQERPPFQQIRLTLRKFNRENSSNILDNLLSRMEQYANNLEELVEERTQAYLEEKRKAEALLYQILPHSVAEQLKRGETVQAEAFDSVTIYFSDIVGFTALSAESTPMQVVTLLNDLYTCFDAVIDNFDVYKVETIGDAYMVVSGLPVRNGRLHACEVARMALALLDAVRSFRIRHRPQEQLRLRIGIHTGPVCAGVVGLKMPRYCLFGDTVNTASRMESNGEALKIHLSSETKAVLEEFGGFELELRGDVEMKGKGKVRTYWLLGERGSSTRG
Experimental: as §1, §2, §3

NPRB [3] = target: T2, NPRB; assay: Transient expression whole-cell stimulation of cGMP production, NPRB-transfected COS-7 cells; type: cell-based
Experimental: Ligand-dependent activation of the cytoplasmic guanylyl cyclase (GC) domains of the human NPRB and NPRA receptors was examined in transient expression whole-cell stimulation assays. In FIG. 3, the natriuretic peptide stimulation of cGMP production is shown. COS-7 cells transfected with pRK (control; pane C), human NPRA expression vector^5 (panel A), or human NPRB receptor expression vector (panel B) were either not treated (panel C) or stimulated with 500 nM porcine BNP (BNP) or human ANP (ANP) for 5 minutes. Results are expressed as the mean amount of cGMP (pmoles) per culture±standard deviation for 3 independent determinations.
The COS-7 cells were seeded at a density of 1×10^6 cells per well in a 60 mm plate with high glucose DMEM plus 10% heat inactivated dialyzed calf serum and maintained for 12 hours at 37° C. in 7%, 93% air. […] of plasmid DNA was transfected with […] of DEAE-dextran in 2 ml of high glucose DMEM±10% Nuserum (Gibco) for 4 hours. Cells were shocked with 20% glycerol in PBS for 1 minute, fresh medium was added and cells were maintained for 72 hours prior to stimulation. Non-treated cultures were incubated at 37° C. in DMEM with 25 mM Hepes pH 7.2, […] IBMX at 37° C. for 10 minutes, medium was aspirated and 6% trichloroacetic acid (TCA) was added. Stimulated samples were treated for an additional 5 minutes in the presence of 500 nM peptide before TCA treatment. Samples were frozen at -20° C. for 1 hr, thawed at room temperature, and cell debris was removed by centrifugation at 2500 xg for 10 minutes. Samples were extracted once with 4 volumes of water-saturated ether, briefly evaporated and assayed for cGMP as described in Table 2.

[4] = test system: active site of protein kinases; conditions: literature refs 12, 13; cited from earlier work
[5] = target: 130 kDa ANP receptor-GC from adrenal glomerulosa; conditions: literature refs 10, 11; cited from earlier work

In the case of “^125 l-pBNP(26): porcine BNP which contained 26 amino acids, ^125 l labelled (DSGCFGRRLDRIGSLSGLGCNVLRRY; ends and bridges not checked; also: 125I label, position not given here; UniProt P07634 106-131, looked up)”, the “Specific binding to soluble NPRB” value (soluble NPRB; 0.25 mCi ^125 l-pBNP(26), one hour, 8-fold concentrated conditioned medium) is reported as 31,837 cpm, the “Specific binding due to the recombinant soluble receptor protein (difference from control 293 cells)” value (soluble NPRB; difference between soluble NPRB and control 293 cells) is reported as 29,177 cpm and the Kd [1] is reported as 0.0667 nM.

In the case of “[^125 l]-ANP: [^125 l]-human ANP (1800 Ci/mmole, Amersham)”, the “Specific Binding of [^125 l]-ANP” value (NPRB [2]) is reported as 10,694 ± 1412 cpm.

With “[^125 l]-pBNP: [^125 l]-porcine BNP (600 Ci/mmol) (DSGCFGRRLDRIGSLSGLGCNVLRRY; ends and bridges not checked; also: 125I label, position not given here; UniProt P07634 106-131, looked up)” the “Specific Binding of [^125 l]-pBNP” value (NPRB [2]) was 3,643 ± 26 cpm and the “Specific Binding of [^125 l]-pBNP” value (NPRA) was 5,721 ± 1107 cpm.

In the case of “pBNP: porcine BNP (brain natriuretic peptide) (DSGCFGRRLDRIGSLSGLGCNVLRRY; ends and bridges not checked; cysteine pairing not given here; UniProt P07634 106-131, looked up)”, the “fold increase in cGMP over control transfected cells” value (NPRB [3]; NPRB, 500 nM peptide, 5 minutes) is reported as 9.7 fold, the “fold more effective than ANP in the activation of NPRB GC activity” value (NPRB [3]; NPRB, 500 nM peptide, 5 minutes, versus ANP) is reported as 6.4 fold and the “activation of NPRB receptor (in words)” value (NPRB [3]; pBNP as compared to human ANP) is reported as “preferentially activated”.

In the case of `N=C(N)NC(=O)c1nc(Cl)c(N)nc1N` [amiloride], the “inhibition of ATP binding to the active site of protein kinases” value [4] is listed as “competitive inhibitor of ATP binding to the active site of protein kinases” and the “effect on receptor conformation and Kd for ANP” value [5] is listed as “change in receptor conformation and a lowering of the Kd for ANP”.
